Source: patent publication US20120021972A1 (CADILA HEALTHCARE, published 2012)
Starred links: 1 amine or outer side, 2 acyl side, 3 side chain; linkers in the order of their positions; H or OH if unused. Non-standard residues stand in square brackets, D forms with d. No end group written: not given here. NMe2F‑APPA = N-methyl-2-amino-5-(2-fluorophenyl)pentanoic acid, CN([C@@H](CCCc1ccccc1F)C(=O)[*:2])[*:1]; 2,4‑diF‑APPA = 2-amino-5-(2,4-difluorophenyl)pentanoic acid, O=C([C@H](CCCc1ccc(F)cc1F)N[*:1])[*:2]; AMCB = 2-amino-5-(4-chloro-2-methylphenyl)pentanoic acid, Cc1cc(Cl)ccc1CCC[C@H](N[*:1])C(=O)[*:2]; ACPP = 2-amino-5-(3-chlorophenyl)pentanoic acid, O=C([C@H](CCCc1cccc(Cl)c1)N[*:1])[*:2]; 2Cl,4OMe‑APPA = 2-amino-5-(2-chloro-4-methoxyphenyl)pentanoic acid; 2CF3‑APPA = 2-amino-5-(2-(trifluoromethyl)phenyl)pentanoic acid; Bip(2'-Et-4'-OMe) = CCc1cc(OC)ccc1-c1ccc(C[C@H](N)C(=O)O)cc1; Leu(5,5,5,5',5',5'-F6) = N[C@@H](CC(C(F)(F)F)C(F)(F)F)C(=O)O; Nva(5-(3,5-Me2Ph)) = Cc1cc(C)cc(CCC[C@H](N)C(=O)O)c1; 2Cl‑APPA = 2-amino-5-(2-chlorophenyl)pentanoic acid; 2F‑APPA = 2-amino-5-(2-fluorophenyl)pentanoic acid; αMePhe(2-F) = C[C@](N)(Cc1ccccc1F)C(=O)O; Phe(2-F) = N[C@@H](Cc1ccccc1F)C(=O)O; NMeBip(OMe) = N-methylated Bip(OMe); hhPhe = N[C@@H](CCCc1ccccc1)C(=O)O; αMeF = C[C@](N)(Cc1ccccc1)C(=O)O; NMeD = CN[C@@H](CC(=O)O)C(=O)O; aThr = C[C@H](O)[C@H](N)C(=O)O; αMeP = C[C@@]1(C(=O)O)CCCN1; NMeAPPA = not defined here; CNB = not defined here; Aib = CC(C)(N)C(=O)O

Experiments:
[1] = target: human GLP-1 receptor (human, UniProt P43220 24-463); experiment: cell-based or functional assay
Chain of human GLP-1 receptor (P43220 24-463): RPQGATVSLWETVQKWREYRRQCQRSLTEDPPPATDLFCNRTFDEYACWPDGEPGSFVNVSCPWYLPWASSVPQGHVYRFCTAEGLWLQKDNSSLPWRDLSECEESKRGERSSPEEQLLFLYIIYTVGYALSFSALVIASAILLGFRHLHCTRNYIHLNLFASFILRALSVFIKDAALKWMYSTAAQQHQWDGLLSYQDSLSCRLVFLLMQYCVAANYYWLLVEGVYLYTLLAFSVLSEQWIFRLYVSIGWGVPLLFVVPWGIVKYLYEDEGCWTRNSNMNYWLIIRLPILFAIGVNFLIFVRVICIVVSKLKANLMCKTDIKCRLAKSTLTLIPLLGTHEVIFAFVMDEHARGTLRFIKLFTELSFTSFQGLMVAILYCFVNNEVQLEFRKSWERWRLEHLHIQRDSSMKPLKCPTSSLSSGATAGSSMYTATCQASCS

[2] = target: human glucagon receptor (human, UniProt P47871 26-477); experiment: cell-based or functional assay

cAMP release, % activity, 1 nM [1] | cAMP release, % activity, 10 nM [1] | cAMP release, % activity, 100 nM [1] | cAMP release, % activity, 1 µM [1] | cAMP release, % activity, 10 µM [1] | inhibition of cAMP production, 1 nM [2] | inhibition of cAMP production, 10 nM [2] | inhibition of cAMP production, 100 nM [2] | inhibition of cAMP production, 1 µM [2] | inhibition of cAMP production, 10 µM [2] | Binder
96% | 99% | 99% | 99% | 99% | 19 pmol/ml/µg prt | 17 pmol/ml/µg prt | 15 pmol/ml/µg prt | 14 pmol/ml/µg prt | 12 pmol/ml/µg prt | H[Aib][CNB]G[aThr][αMePhe(2-F)][aThr]SD[Bip(2'-Et-4'-OMe)][hhPhe] (reading uncertain; also: thioamide bond between residues 10 and 11) [Seq. ID. No. 166: H-Aib-(CNB)-G-T(allo)-(α-Me-2F-Phe)-T(allo)-SD-Bip(OMe)-(C═S)-(APPA)]
55% | 89% | 93% | 99% | 99% | 5 pmol/ml/µg prt | 3 pmol/ml/µg prt | 0 pmol/ml/µg prt | 0 pmol/ml/µg prt | 0 pmol/ml/µg prt | H[Aib][CNB]G[aThr][αMePhe(2-F)][aThr]SD[NMeBip(OMe)][NMe2F‑APPA] (reading uncertain) [Seq. ID. No. 144: H-Aib-(CNB)-G-T(allo)-(α-Me-2F-Phe)-T(allo)-SD-((NMe)Bip(OMe))-((NMe)(2F-APPA))]
39% | 81% | 89% | 96% | 99% | 5 pmol/ml/µg prt | 3 pmol/ml/µg prt | 1 pmol/ml/µg prt | 0 pmol/ml/µg prt | 0 pmol/ml/µg prt | H[Aib][CNB]G[aThr][αMePhe(2-F)][aThr]SD[Bip(2'-Et-4'-OMe)][NMeAPPA] (reading uncertain) [Seq. ID. No. 130: H-Aib-(CNB)-G-T(allo)-(α-Me-2F-Phe)-T(allo)-SD-Bip(OMe)-((NMe)(APPA))]
99% | 99% | 99% | 99% | 99% |  |  |  |  |  | H[Aib][Leu(5,5,5,5',5',5'-F6)]GT[αMePhe(2-F)]TSD[Bip(2'-Et-4'-OMe)][Nva(5-(3,5-Me2Ph))] [Seq. ID. No. 235: H-Aib-(Hfl)-GT-(α-Me-2F-Phe)-TSD-Bip(OMe)-(ADMP)]
60% | 92% | 98% | 99% | 99% | 9 pmol/ml/µg prt | 6 pmol/ml/µg prt | 5 pmol/ml/µg prt | 3 pmol/ml/µg prt | 0 pmol/ml/µg prt | H[Aib][CNB]G[aThr][αMePhe(2-F)][aThr]S[NMeD][NMeBip(OMe)][NMeAPPA] (reading uncertain) [Seq. ID. No. 154: H-Aib-(CNB)-G-T(allo)-(α-Me-2F-Phe)-T(allo)-S-(NMe)D-((NMe)Bip(OMe))-((NMe)(APPA))]
99% | 99% | 99% | 99% | 99% |  |  |  |  |  | H[Aib][Leu(5,5,5,5',5',5'-F6)]GT[αMeF]TSD[Bip(2'-Et-4'-OMe)][hhPhe] [Seq. ID. No. 230: H-Aib-(Hfl)-GT-(α-Me-Phe)-TSD-Bip(OMe)-(APPA)]
86% | 99% | 99% | 99% | 99% | 5 pmol/ml/µg prt | 2 pmol/ml/µg prt | 0 pmol/ml/µg prt | 0 pmol/ml/µg prt | 0 pmol/ml/µg prt | H[Aib][CNB]G[aThr][αMePhe(2-F)][aThr]S[NMeD][NMeBip(OMe)][NMe2F‑APPA] (reading uncertain)

The next lines start with the binder.

Binder | cAMP release, % activity, 1 nM [1] | cAMP release, % activity, 10 nM [1] | cAMP release, % activity, 100 nM [1] | cAMP release, % activity, 1 µM [1] | cAMP release, % activity, 10 µM [1] | inhibition of cAMP production, 1 nM [2] | inhibition of cAMP production, 10 nM [2] | inhibition of cAMP production, 100 nM [2] | inhibition of cAMP production, 1 µM [2] | inhibition of cAMP production, 10 µM [2]
HSQGTFTSD[Bip(2'-Et-4'-OMe)][2Cl‑APPA] [Seq. ID. No. 50: HSQGTFTSD-Bip(OMe)-(2Cl-APPA)] | 60% | 92% | 98% | 99% | 99% |  |  |  |  | 
H[αMeP]QGTFTSD[Bip(2'-Et-4'-OMe)][ACPP] [Seq. ID. No. 11: H-(α-Me-Pro)-QGTFTSD-Bip(OMe)-(ACPP)] | 99% | 99% | 99% | 99% | 99% | 3 pmol/ml/µg prt | 0 pmol/ml/µg prt | 0 pmol/ml/µg prt | 0 pmol/ml/µg prt | 0 pmol/ml/µg prt
H[Aib][CNB]G[aThr][αMePhe(2-F)]TSD[Bip(2'-Et-4'-OMe)][2F‑APPA] (reading uncertain) [Seq. ID. No. 112: H-Aib-(CNB)-G-T(allo)-(α-Me-2F-Phe)-TSD-Bip(OMe)-(2F-APPA)] | 39% | 81% | 89% | 96% | 99% | 6 pmol/ml/µg prt | 5 pmol/ml/µg prt | 2 pmol/ml/µg prt | 0 pmol/ml/µg prt | 0 pmol/ml/µg prt
H[Aib]QGT[Phe(2-F)]TSD[Bip(2'-Et-4'-OMe)][Nva(5-(3,5-Me2Ph))] [Seq. ID. No. 42: H-Aib-QGT-(2F-Phe)-TSD-Bip(OMe)-(ADMP)] | 39% | 81% | 89% | 96% | 99% |  |  |  |  | 
H[Aib][CNB]G[aThr][αMePhe(2-F)]TSD[Bip(2'-Et-4'-OMe)][hhPhe] (reading uncertain) [Seq. ID. No. 110: H-Aib-(CNB)-G-T(allo)-(α-Me-2F-Phe)-TSD-Bip(OMe)-(APPA)] | 38% | 77% | 85% | 94% | 97% | 18 pmol/ml/µg prt | 16 pmol/ml/µg prt | 12 pmol/ml/µg prt | 8 pmol/ml/µg prt | 6 pmol/ml/µg prt
HSQGTFTSD[Bip(2'-Et-4'-OMe)][2CF3‑APPA] [Seq. ID. No. 47: HSQGTFTSD-Bip(OMe)-(2CF3-APPA)] | 55% | 89% | 93% | 99% | 99% |  |  |  |  | 
H[Aib]QGT[αMePhe(2-F)]TSD[Bip(2'-Et-4'-OMe)][ACPP] [Seq. ID. No. 39: H-Aib-QGT-(α-Me-2F-Phe)-TSD-Bip(OMe)-(ACPP)] | 40% | 81% | 87% | 95% | 98% |  |  |  |  | 
H[Aib]QGTFTSD[Bip(2'-Et-4'-OMe)][2Cl,4OMe‑APPA] [Seq. ID. No. 68: H-Aib-QGTFTSD-Bip(OMe)-(2Cl, 4OMe-APPA)] | 39% | 80% | 88% | 96% | 99% |  |  |  |  | 
H[Aib][CNB]GTFTSD[Bip(2'-Et-4'-OMe)][AMCB] (reading uncertain) [Seq. ID. No. 32: H-Aib-(CNB)-GTFTSD-Bip(OMe)-(AMCB)] | 39% | 80% | 88% | 96% | 99% |  |  |  |  | 
H[Aib][CNB]GTFTSD[Bip(2'-Et-4'-OMe)][2Cl,4OMe‑APPA] (reading uncertain) [Seq. ID. No. 84: H-Aib-(CNB)-GTFTSD-Bip(OMe)-(2Cl,4OMe-APPA)] | 38% | 77% | 85% | 94% | 97% | 4 pmol/ml/µg prt | 2 pmol/ml/µg prt | 0 pmol/ml/µg prt | 0 pmol/ml/µg prt | 0 pmol/ml/µg prt
H[Aib][CNB]G[aThr][αMePhe(2-F)][aThr]SD[Bip(2'-Et-4'-OMe)][2F‑APPA] (reading uncertain) [Seq. ID. No. 116: H-Aib-(CNB)-G-T(allo)-(α-Me-2F-Phe)-T(allo)-SD-Bip(OMe)-(2F-APPA)] | 55% | 88% | 92% | 99% | 99% | 2 pmol/ml/µg prt | 0 pmol/ml/µg prt | 0 pmol/ml/µg prt | 0 pmol/ml/µg prt | 0 pmol/ml/µg prt
H[Aib]QGTFTSD[Bip(2'-Et-4'-OMe)][2,4‑diF‑APPA] [Seq. ID. No. 62: H-Aib-QGTFTSD-Bip(OMe)-(2,4-diF-APPA)] | 38% | 78% | 86% | 95% | 98% |  |  |  |  | 
H[Aib][CNB]GT[αMePhe(2-F)][aThr]SD[Bip(2'-Et-4'-OMe)][2F‑APPA] (reading uncertain) [Seq. ID. No. 120: H-Aib-(CNB)-GT-(α-Me-2F-Phe)-T(allo)-SD-Bip(OMe)-(2F-APPA)] | 99% | 99% | 99% | 99% | 99% | 0 pmol/ml/µg prt | 0 pmol/ml/µg prt | 0 pmol/ml/µg prt | 0 pmol/ml/µg prt | 0 pmol/ml/µg prt
H[Aib][CNB]G[aThr][αMePhe(2-F)][aThr]SD[Bip(2'-Et-4'-OMe)][hhPhe] (reading uncertain) [Seq. ID. No. 114: H-Aib-(CNB)-G-T(allo)-(α-Me-2F-Phe)-T(allo)-SD-Bip(OMe)-(APPA)] | 82% | 87% | 92% | 99% | 99% | 4 pmol/ml/µg prt | 2 pmol/ml/µg prt | 0 pmol/ml/µg prt | 0 pmol/ml/µg prt | 0 pmol/ml/µg prt
